Publication PMC12126490, “The HP1 box of KAP1 organizes HP1α for silencing of endogenous retroviral elements in embryonic stem cells” (Nature Communications, 2025)

Assays:
[1] = tested on: endogenous HP1α in KAP1^−/− ESCs; assay: immunofluorescence of endogenous HP1α; type: cell-based; details: KAP1^−/− mouse ESCs stably expressing the GFP-labeled construct, anti-HP1α antibody, DAPI
Protocol: The constructs coding for GFP-KAP1RF and the P486A/V488A/L490A mutant were transfected into 1 ×10^5 KAP1^−/− mouse ESCs using Lipofectamine 3000 (Invitrogen). Forty-eight hours post-transfection, cells were trypsinized and plated at a colony density in selection medium containing 10 μg/ml blasticidin (Thermo Fisher Sci) for one week. The selection process was repeated once to establish stable GFP-KAP1 expressing cell lines.
For immunostaining, mouse ESCs were cultured on Geltrex-coated coverslips (Life Technologies) in DMEM supplemented with 16% fetal bovine serum, 0.1 mM β-mercaptoethanol (Invitrogen), 2 mM L-glutamine, 1× MEM non-essential amino acids, 100 U/ml penicillin, 100 µg/ml streptomycin (PAA), 2i (1 μM PD032591 and 3 μM CHIR99021 (Axon Medchem, Netherlands) and 1000 U/ml recombinant LIF (Millipore). Coverslips were rinsed twice with PBS (pH 7.4; 140 mM NaCl, 2.7 mM KCl, 6.5 mM Na2HPO4, 1.5 mM KH2PO4), followed by fixation with 3.7% formaldehyde (Sigma) for 10 min. Fixed cells were washed three times (10 min each) with PBST (PBS + 0.01% Tween-20), permeabilized in 0.5% Triton X-100 for 10 min, and washed twice (10 min each) with PBST. Primary and secondary antibodies were prepared in blocking solution (PBST + 3% BSA). […]

[2] = tested on: DNA-induced HP1α phase separated droplets; assay: in vitro droplet assay; details: 50 µM HP1α, 0.18 µM 601 DNA
Excerpt: For droplet assays, cDNA of full-length HP1α was cloned into a pET28 expression vector. His-tag fusion HP1α was expressed in E. coli and purified as in ref. [51]. cDNA of the KAP1FR fragment (aa 114–834) was cloned into a pCAG-GFP expression vector, and the P486A/V488A/L490A mutant of GFP-KAP1FR was generated using overlap extension PCR. Purification of GFP-KAP1FR proteins was described in ref. [52].
For the droplet assay, Widom 601 DNA was amplified by PCR using a plasmid coding for 12× 601 DNA with primers as follows: 601 DNA_F: […] and 601 DNA_R: TGCACAGGATGTATATATCTGACAC. HP1α was concentrated to ~10 µg/µl using Amicon concentrators. The buffer changes for both HP1α and GFP-KAP1FR solutions were carried out using Zeba™ Spin Desalting Columns with a buffer containing 20 mM HEPES at pH 7.2, 75 mM KCl, and 1 mM DTT. For visualization of His-tagged-HP1α within the droplets, 500 ng of protein was labeled with the 647 N fluorescent label using the Monolith NT™ Protein Labeling Kit RED-NHS from Nano Temper. To form HP1α droplets, 50 µM of HP1α was incubated with 0.18 µM of 601 DNA for 3 min and dropped into ibidi chamber (µ-Slide 18 Well). Subsequently, 50 ng of the labeled HP1α and 100 ng of GFP-KAP1FR (wild type or mutant) were added into HP1α/DNA droplets. The images of the droplets were collected using a Nikon TiE microscope equipped with a Yokogawa CSU-W1 spinning-disk confocal unit (50 μm pinhole size), an Andor Borealis illumination unit, Andor ALC600 laser beam combiner (405 nm/488 nm/561 nm/640 nm), Andor IXON 888 Ultra EMCCD camera, and a Nikon 100×/1.45 NA oil immersion objective. The size and intensity of HP1α phase-separated droplets were analyzed using ImageJ.

B1: GFP-KAP1FR-PVLmut: P486A/V488A/L490A mutant of GFP-KAP1FR impaired in HP1α binding (protein)
chain: VVDCPVCKQQCFSKDIVENYFMRDSGSKAATDAQDANQCCTSCEDNAPATSYCVECSEPLCETCVEAHQRVKYTKDHTVRSTGPAKSRDGERTVYCNVHKHEPLVLFCESCDTLTCRDCQLNAHKDHQYQFLEDAVRNQRKLLASLVKRLGDKHATLQKSTKEVRSSIRQVSDVQKRVQVDVKMAILQIMKELNKRGRVLVNDAQKVTEGQQERLERQHWTMTKIQKHQEHILRFASWALESDNNTALLLSKKLIYFQLHRALKMIVDPVEPHGEMKFQWDLNAWTKSAEAFGKIVAERPGTNSTGPAPMAPPRAPGPLSKQGSGSSQPMEVQEGYGFGSGDDPYSSAEPHVSGVKRSRSGEGEVSGLMRKVARASAERLDLDLTADSQPPVFKVFPGSTTEDYNLIVIERGAAAAATGQPGTAPAGTPGAPPLAGMAIVKEEETEAAIGAPPTATEGPETKPVLMALAEGPGAEGPRLASPSGSTSSGLEVVAPEGTSAPGGGPGTLDDSATICRVCQKPGDLVMCNQCEFCFHLDCHLPALQDVPGEEWSCSLCHVLPDLKEEDGSLSLDGADSTGVVAKLSPANQRKCERVLLALFCHEPCRPLHQLATDSTFSLDQPGGTLDLTLIRARLQEKLSPPYSSPQEFAQDVGRMFKQFNKLTEDKADVQSIIGLQRFFETRMNEAFGDTKFSAVLVEPPPMSLPGAGLSSQELSGGPGDG
modifications: left off: GFP, end not stated, kept
distribution of endogenous HP1α (puncta) [1]: more dispersed and formed smaller and fewer puncta | sequestration of 647N labeled HP1α into droplets ([2]; 20 mM HEPES pH 7.2, 75 mM KCl, 1 mM DTT, 100 ng GFP-KAP1FR, 50 ng labeled HP1α): unable to sequester 647N labeled HP1α into the condensed phase | localization of GFP-KAP1FR in droplets ([2]; confocal microscopy): concentrated at the periphery of the droplets
